Three substances from publication PMC3671127 can be followed below.

Test [1] has as its target HIV-1 integrase, wild type, fluorescently labelled (IN-mTFP1 and IN-mVenus) in virions (HIV-1) (UniProt P12497). The test is described as follows: FRET or BRET; single virus FRET by acceptor photobleaching (TIRF microscopy) on fixed virions with IN-mTFP1 donor and IN-mVenus acceptor; FRET ratio = FD/FDA; virions produced in the presence of CX05045 (5-fold EC50). Background: Bioluminescence resonance energy transfer reports proximity on the nanometre scale.

Test [2] shares this target. Nature of the test: FRET or BRET; single virus FRET by acceptor photobleaching (TIRF microscopy) on fixed virions with IN-mTFP1 donor and IN-mVenus acceptor; FRET ratio = FD/FDA, unity means no FRET; virions produced in the presence of DMSO.
The target is the same in test [3]. Nature of the test: FRET or BRET; single virus FRET by acceptor photobleaching (TIRF microscopy) on fixed virions with IN-mTFP1 donor and IN-mVenus acceptor; FRET ratio = FD/FDA; virions produced in the presence of raltegravir (5-fold EC50).
Test [4] concerns the target HIV-1 Pol polyprotein with a catalytically dead protease (sPol-PR_(D25N)) (HIV-1 (IIIB)). Nature of the test: AlphaScreen or HTRF; 33 nM GST-sPol-PR_(D25N) and 33 nM His-MBP-sPol-PR_(D25N) kept constant, CX05045 (raltegravir, DMSO as controls) titrated 1:10 from 100 uM; 25 mM Tris/HCl pH 7.5, 150 mM NaCl, 1 mM dithiothreitol, 1 mM MgCl2, 0.1% BSA, 0.1% Tween 20; overnight at 4°C, then glutathione donor and Ni-chelate acceptor beads 2 h at 23°C.

Test [5] concerns the target HIV-1 integrase A128T (LEDGIN-resistant), fluorescently labelled (IN_(A128T)-mTFP1 and IN_(A128T)-mVenus) in virions (HIV-1). Nature of the test: FRET or BRET; single virus FRET by acceptor photobleaching (TIRF microscopy) on fixed virions with IN-mTFP1 donor and IN-mVenus acceptor; FRET ratio = FD/FDA; virions produced in the presence of CX05045 (5-fold EC50).
The target is the same in test [6]. The test is described as follows: FRET or BRET; single virus FRET by acceptor photobleaching (TIRF microscopy) on fixed virions with IN-mTFP1 donor and IN-mVenus acceptor; FRET ratio = FD/FDA, unity means no FRET; virions produced in the presence of DMSO.

For the substance “HIV-1 integrase, wild type, fluorescently labelled (IN-mTFP1 and IN-mVenus) in virions (from UniProt P12497 1148-1435) (enzyme)”, the mean FRET ratio (CX05045) in test [1] was determined as 1.43. Moreover, in test [2], the mean FRET ratio (DMSO) turned out to be 1.25. For the same substance, the mean FRET ratio (raltegravir) in test [3] was 1.22.
“HIV-1 Pol polyprotein with a catalytically dead protease (sPol-PR_(D25N)) (natural protein)”: the EC50 of CX05045 for the enhancement of Pol-Pol multimerization in test [4] came out at 8.7 nM.
In the case of “HIV-1 integrase A128T (LEDGIN-resistant), fluorescently labelled (IN_(A128T)-mTFP1 and IN_(A128T)-mVenus) in virions (enzyme)”, the mean FRET ratio (CX05045) in test [5] was 1.23. Moreover, the mean FRET ratio (DMSO) in test [6] amounted to 1.26.
